Results reported in the nanobody polyreactivity screen of Harvey et al. (2022).

Assay: yeast display, Sf9 membrane polyspecificity reagent, FACS + sequencing; frameworks hold sequencing errors
How it was run: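 A nanobody's polyreactivity label depends on the gate it was sorted from. Yeast display cells were stained with 10% biotinylated, detergent-solubilized Sf9 membrane reagent for 1 hour at 4 °C, enriched on streptavidin microbeads and sorted by FACS. The low and high (top ~1%) gates were set on anti-HA fluorescence for expression and streptavidin fluorescence for reagent binding.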

Sequence	polyreactivity (PSR sort gate)
QVQLQESGGGLVQAGGSLRLSCAASGSITHYIFMGWYRQAPGKEREFVAGIGYGGTTNYADSVKGRFTISRDNAINTVYLQMNSLKPEDTAMYYCAAREATEFYLYYWGQGTQVTVSS	low polyreactivity
QVQLQESGGGLVQAGGSLRLSCAASGSIYVSVTMGWYRQAPGKERELVASIGRGSTTNHADSVKGRFTISRDNAKNIVYLLMNSLKPEDTAVYYCAALESYGKYHGYWGEGTQVTVSS	low polyreactivity
QVQLQESGGGLVQAGGSLRLSCAASGSSFEELDMGWYRQAPGKEREFVAAIGTGSTTYYADSVKGRLTISRDNAKNTVYLQMNSLKPEDTAVYYCAVDTWARAYLGYWGQGTQVTVSS	high polyreactivity
QVQLQESGGGLVQAGGSLRLSCAASGTIFRFRYMGWHRQAPGKERELVAGINGGTTTYYADSVIGRFTISRDNAKKSVYLQMNSLKPDDTAVYNCAAGASRLTYYDYWGQGTQVTVSS	low polyreactivity
QVQLQESGGGLVQAGGSLRLSCAASGTISDSGLMGWYRQAPGKERELVAGISSGGITNYADSVKGRFTISRDIAKNTVYLQMNSLKPEDTAVYWGQGTQVTVSS	low polyreactivity
QVQLQESGGGLVQAGGSLRLSCAASGTISDSGLMGWYRQAPGKERELVAGISSGGITNYADSVKGRFTISRDNAKKTVYLQMNSLKPEDTAVYWGQGTQLTVSS	low polyreactivity
QVQLQESGGGLVQAGGSLRLSCAASGTISQEDWMGWYRQAPGKEREFVAAIGLGSNTNYADSLKGRFTISRDNAKNTVYLQMNSLKPEDTAVYYCAVSVWQYSDNVYRGQGTQVTVSS	low polyreactivity
QVQLQESGGGLVQAGGSLRLSCAASGTISQEDWMGWYRQAPGKEREFVAPIGLGSNTNSADSLKGRFTISRDNAKNTVYLHMNSLKPEDTAVYYCAVCVWQYSDHVYRGQGTQVTVSS	low polyreactivity
QVQLQESGGGLVQAGGSLRLSCAASGTISVHASMGWYRQAPGKERELVAGITDGANTYYADSVKGRFTISRDNSKNTVYMQKNSLKPEDTAVYYCAAYYGTEVHFTYWGQGTQVTVSS	low polyreactivity
QVQLQESGGGLVQAGGSLRLSCAASGTISYGSVMGWYRQAPGKERELDAGIGYGSTTNYADSVKGRFTISRDNAKNTVYLQMNSLKPDDTAVYYCARDLYYVYSFAPYRYEYWGHGTQVTVSS	low polyreactivity
QVQLQESGGGLVQAGGSLRLSCAASGYISFSGYMGRYRQAPGKEREFVDSITPGRSTYYADSVKGRFTISRDNAENTVYLQMNSLQPEDTAVDYCAADDSRTEQHAYWGQGTQVTVRS	high polyreactivity
QVQLQESGGGLVQAGGSLRLSCAASGYISHADEMGWYRKAPGKEHELVASISNGGSTNYADSVKGRFTISRDNAKNTVYLQMNSLKSEDTAVYYCAAWTGQVDIHYYWGMGTQVTVSS	low polyreactivity
QVQLQESGGGLVQAGGSLRLSCAASGYISHADEMGWYRQAPGKEHELVASISNGGSTNYADSVKGRFTIRRDNAKNTVYLQMNSLKSEDTAVYYCAAWTGQVDIHDSWGQRTQVTVSS	low polyreactivity
QVQLQESGGGLVQAGGSLRLSCAASGYISHADEMGWYRQAPGKEHELVASISNGGSTNYADSVKGRFTISRDNAKNTVFLQMNSLKSEDTAVYYCAAWTGQVDIHYYWGQGTQVTVSS	low polyreactivity
QVQLQESGGGLVQAGGSLRLSCAASGYISHADEMGWYRQAPGKEHELVASISNGGSTNYADSVKGRFTISRDNANNTVYLQMNSLKSEVTAVYYCAAWTGQVDIHYYWGQGTQVTVSS	low polyreactivity
QVQLQESGGGLVQAGGSLRLSCEASGSIYYPRTMGRSRQAPGKELEFVAGSGVGGTTYYADSVKGRFTISRDNAKNTVYLQMNSLIPEDDAVYYCAVAAYYDKYYVYWGQGTQVTVSC	low polyreactivity
QVQLQESGGGLVQAGGSLRLSSAASGSIFKVVDMGLYRQAPAKEREFVATIGEGGNTYYADSVKGRFTMSRDNAKNTVYLQKNSLKPEDTALYFYAVVLGTSYRYTYWGQGTQVTVSS	low polyreactivity
QVQLQESGGGLVQAGGSLRLTCAASGSISYPRTMGWYRQAPGKEREFVAGIGVGGTTYYADSVKGRYTISRDNAKNTVYLQMNSLKPEHAAVDYCAVAAYYDKYYVYWGQGTQVTVSC	low polyreactivity
QVQLQESGGGLVQAGGSLRMICAASGYISACRQMGWYRKAPGKEREFVATINGGATTNYADSVKGRFTISRDNAKNSVYLQMNSLKPEDTAVYYCAAVIWYVQDYTYWGQGAQVTVSS	high polyreactivity
QVQLQESGGGLVQAGGSLRMSCAASGNIFDADIMGWSRQAPGKERELVASNTDGRRTNYADSVKGRYTISRDSEKNTVYLQMNSLKAEDTAEYYCAAIAYPVVPTSFDYDCDYFHWGQGTQVTVSS	high polyreactivity
QVQLQESGGGLVQAGGSLRMSCAASGTISPLPAMGWYRQAPGKDRDFVAGIDTGAITNYADSVKGRFTISRDNAKNTVYLQMNSLKPEDTAVYYCAVFPAAYDYYERYYTYWGQGTQVTVSS	low polyreactivity
QVQLQESGGGLVQAGGSLRMSCSASGNIFDADIMGWYRQAPGKERELVASITDGRRTNYADSVKGRYTISRDSEKNTVYLQMNSLKPEDTAVYYCAAIAYPVVPTYFDYDSDYFHWGQGTQVTVSS	high polyreactivity

Sequence	polyreactivity (PSR sort gate)
QVQLQESGGGLVQAGGSLRQSYAASGYIFPSLAMGWYRQAPGKEREFVAAIGRGSTNNYADSVQGRFTISRDNAKNTAYQQMNSLKPEDTAVYYCAAAASPLTRHLYWGQGTQVTVSS	low polyreactivity
QVQLQESGGGLVQAGGSPRLSCAASDNIFPDSLMCWYRQAPGKERELVATIGFGATTNYEDSVKGRFTISRDNAKNTVYLQMNSLNPEDTALYYCAAVPLNYEYFCYWGQGTQVTVSS	low polyreactivity
QVQLQESGGGLVQAGGSPRLSCAASDNIFPDSVMCWYRQAPGKERELVATIGFGATTNYADSVKGRFTISRDNAKNTVYLQMNSLKPEDTAVYYCAAVPLNYEYFCYWGQGTQVTVSS	low polyreactivity
QVQLQESGGGLVQAGGSQRLSCAASGSISILQSMRWYRQAPGKERELVAGINWGATTYYADSVKGRLTSCRDYAKNTVYLEMNSLNPEDTAVYYCAVPTYYTYPLLYWGQGTQVTVSS	low polyreactivity
QVQLQESGGGLVQAGGSQRLSCAASGYIFYFQYMGWYRQAPGKEREFVAAISDGANTNYADSVKGRFTISRDNAKNTEYLQMNSLKPEDTAVYYCAAGLSTGTIAYGYNYWRQGTQVTVSS	low polyreactivity
QVQLQESGGGLVQAGGTITLGYDMGWYRQAPGKEREFVAGIDTGAITYYADSVKGRFTNSRDNAKNTVYLQMNSLKPEDTAVYYCAAIQTHTYAHSYWGQGTQVTVSS	high polyreactivity
QVQLQESGGGLVQAGGTLRLSCAASGSFSADEDMGWYRQSQGKEREFVAGISVGGNTNYADSVKGRFTISRENAKKTVYLKINCLKPEDTAVYYCRVRLRTSYLLDYWGQGTQVTVSS	high polyreactivity
QVQLQESGGGLVQAGGTLRLSCAASGTISFTRDMGWYRQAPGKEREFVASIDRGASTYYADSVKGRFTISRDNAKNTVYLQMNSLKPEDNAVYYRAVIAPFYSSFAYWGQGTQVTVSS	high polyreactivity
QVQLQESGGGLVQAGVSLRLSGAASGYISTFSSEMGWYRQAPVKERELVASIAPGCTTSYADSVKGRFTISRDNAKNTVYLQMNSLKPEDTAVYYCAVDYTVPASFGYWGQGTQVTVSS	high polyreactivity
QVQLQESGGGLVQARGSLRLSCAASGSISRYYDMGWYRQAPCKESEFVAGISGGAITYYADSVKGRFTISRDNAKNTVYLQMNSLKPEDTAVYYCAADTGVYKYHSYWGQVTQVTVSS	low polyreactivity
QVQLQESGGGLVQASGSIFHEPNMGWYRQAPGKERELVAGISSGANTYYADSVKGRFTISRDNAKNTVYLQMNSVKPEDTAVYHCAVVVHLYTDLRNWGQDTQVTVSS	high polyreactivity
QVQLQESGGGLVQASGSIFHEPTMGWYRQAPGKERELVAGISSGANTYYADSGKGRCTISRDNAKNTVYLQMNSLKPEDTAVYYCNARRRYSLTMDYWGHGTQVTVSS	high polyreactivity
QVQLQESGGGLVQASGSLRLSCAASGNIFPDYFMGWYRLATGKEREFVANITGGSTTNYADSVKGRFTISRDNANNTVYLQIYSLKPEDTAVYYCAVYFGTVQHAYWGQGTQVTVSS	high polyreactivity
QVQLQESGGGLVQSGGSLRLSCAASGFIFARNYMGWYRQAPGKERELVAGIGVGASTNYADSVKGRFTISRDNAKNTVYLQMNSLKPEDTAVYYCNARTGTTWQGYEYDYWGQGTQVTVSS	low polyreactivity
QVQLQESGGGLVQVGGSLRLSFAASGTIFIYGFLGWNLQAPGKERELVASINLGGITNYADSVKGRFTISRDNAKNTVYLQMLSLKPEDTAVYYCAAYVVTGQNYGYWGQGTQVTVSS	low polyreactivity
QVQLQESGGGLVQVGGSQRLSCAASGNIFYNYAMGWYRHAQGKEREFDATINHGTSINYADSVKGRFTISRDNAKNSVYLQMNSLKPEDTAVYYCAADLSWTDNLFYWGQGTQVTVSS	low polyreactivity
QVQLQESGGGMVQAGGCLRLSCAASVTIFDPDYMGWYHQAPGKERELVASISLGRITYYADSVKGRFTINRDNAKNTVFLQMISLKPEDTAVYYCAAVTGLFYHPFYKYNYWGQGTQVTVSS	high polyreactivity
QVQLQESGGGMVQAGGSLRLSCASSGYISWADYMGWSRQAPGKERELVDGIGYGSTTYYADSVKGRFNISRDNAKNTAYLQMISLKPEDTAVYYCAVGWYSVTAYNYWGQGTQVTVSS	low polyreactivity
QVQLQESGGGMVQAGGSLRLSSAASGYISWADSMGWYRQAPGKERELVAGIGYGSTTYYADSVKGRFTISRDNAKNTAYLQMNSLKPEDTAVYYCSVGWYRDTAYKYWGQGTQVTVRS	low polyreactivity
QVQLQESGGGQVHAGGSLRLSCAASGTIFLYAYMGWYRQAPGKERELVAAIDVGTTTNYADSVKGRFTISRDNAKNTVYLQMNSLKPEDTAVYYCAANLGYLDDLGYWGQGTQETVSS	low polyreactivity
QVQLQESGGGQVQAGGSLRLSCAASGYISTHYFMGWYRQATGKDREFVAGISNGSITNYADSVKGRFTISRDNARNTVYLQMNSLKPEDTAVYYGAAYEWTYVRFGYWGQGTQVTVSG	high polyreactivity
QVQLQESGGLVQAGGLRLSCAASGSVSYQEAMGWYRQAPGKERELVATISFGAKTNYADSVKGRFTISRDNAKNTVYLHINSLNPEDTAVYYCAAESLFDDYYGYWGQGTQVTVSS	low polyreactivity
